The values below come from article PMC5146963, “The mechanism of a formaldehyde-sensing transcriptional regulator” (Scientific Reports, 2016).

Changes are numbered by the printed parent chain. Numbers in names are those of the source.

The labels stand for the following.
B1: Escherichia coli FrmR (EcFrmR) (natural protein, Escherichia coli K-12, UniProt P0AAP3 2-91, looked up)
chain: PSTPEEKKKVLTRVRRIRGQIDALERSLEGDAECRAILQQIAAVRGAANGLMAEVLESHIRETFDRNDCYSREVSQSVDDTIELVRAYLK
notes: FrmR, transcriptional repressor of the frmRAB operon, E. coli K-12; last residue Lys91; frmR amplified from E. coli K12 genomic DNA and ligated into pET22b at NdeI and NcoI; no tag is mentioned and the measured mass fits the untagged protein without Met1; source: E. coli expression strains (JRG6782, 6783 and 6784), frmR in pET22b, purified (Heparin-HP, HiLoad Superdex 200)
B2: EcFrmR(P2A) (natural protein, Escherichia coli K-12, UniProt P0AAP3 2-91, looked up)
chain: B1 chain with P1A
notes: FrmR, E. coli K-12, with P2A; Mutation made by overlap PCR or Quikchange; also called P2A variant; source: E. coli expression strains (JRG6782, 6783 and 6784), purified (Heparin-HP, HiLoad Superdex 200)
B3: EcFrmR(C35A) (natural protein, Escherichia coli K-12, UniProt P0AAP3 2-91, looked up)
chain: B1 chain with C34A
notes: FrmR, E. coli K-12, with C35A; Mutation made by overlap PCR or Quikchange; also called C35A variant; source: E. coli expression strains (JRG6782, 6783 and 6784), purified (Heparin-HP, HiLoad Superdex 200)

This data set concerns the molecule itself. In words: SEC; calibrated size exclusion chromatography column; elution volume compared with standards. A general note: SEC sorts molecules by how far they enter the pores of the column.
The term stoichiometry N denotes the number of molecules, sites or subunits per partner or assembly. Turning to B1, the “stoichiometry N” value turned out to be 4.

As for B2, the “stoichiometry N” value was 4.

As to B3, the “stoichiometry N” value is 4.
